Assay results as given in patent US20190203248A1 (Bristol-Myers Squibb, published 2019).
Positions of bridges follow the written chain, without caps; N, C: chain ends. No end group written: not given here.

How the values were obtained:
human β-klotho = human β-klotho (human, UniProt Q86Z14 1-1044); assay: cell-based or functional assay
[1] = molecular target: β-klotho of differentiated 3T3-L1 adipocytes (mouse) (UniProt Q99N32); assay: cell-based or functional assay
Amylin receptor = Amylin receptor (chimpanzee; human, UniProt O60894 27-148); assay: cell-based or functional assay
Amylin receptor, sequence (O60894 27-148): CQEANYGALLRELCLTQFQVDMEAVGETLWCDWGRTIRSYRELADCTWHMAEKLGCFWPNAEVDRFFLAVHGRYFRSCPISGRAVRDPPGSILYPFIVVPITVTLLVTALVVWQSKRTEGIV

human serum albumin [2] = molecular target: T1, human serum albumin (human, UniProt P02768 25-609); assay: Affinity for hSA by SPR (same value as in Table 21)
T1 construct: also called HSA; HuSA
Description: (§1) Surface Plasmon Resonance (SPR) is a direct binding technique by which molecular interactions can be observed in real time. For these experiments, SPR binding studies were performed using a ProteOn XPR36 instrument (BioRad Laboratories). The running buffer, phosphate buffered saline 0.05% Tween 20 pH 7.4, was purchased from Teknova (cat #P1192) and all experiments were run at 25° C. Human serum albumin was directly immobilized on a BioRad GLC chip via amine coupling as per manufacturer's guidelines using amine coupling reagents purchased from BioRad Laboratories. Human serum albumin was purchased from Novozymes (Recombumin™). About 5000 resonance units (RU) of human serum albumin were immobilized onto 4 separate lanes of the GLC chip surface. […] The dissociation was monitored for 600 seconds. The surface was regenerated with 100 mM HCl. The resultant data were fitted to a Langumuir 1:1 binding model using the ProteOn Manager Software. The experiment was repeated with a different concentration range. In this second experiment, 5 concentrations ranging from 500 nM to 32 nM were injected over the surfaces, and the data analyzed as above. The KD is the disassociation constant. Smaller numbers indicate tighter binding to serum albumin.

human serum albumin [3] = molecular target: T1, human serum albumin; assay: SPR (ProteOn XPR36), HSA immobilized on GLC chip, 25 C
Description: as §1

human NPY Y2 receptor = molecular target: T2, human NPY Y2 receptor (human, UniProt P49146 1-381); assay: cell-based or functional assay
T2 sequence (looked up): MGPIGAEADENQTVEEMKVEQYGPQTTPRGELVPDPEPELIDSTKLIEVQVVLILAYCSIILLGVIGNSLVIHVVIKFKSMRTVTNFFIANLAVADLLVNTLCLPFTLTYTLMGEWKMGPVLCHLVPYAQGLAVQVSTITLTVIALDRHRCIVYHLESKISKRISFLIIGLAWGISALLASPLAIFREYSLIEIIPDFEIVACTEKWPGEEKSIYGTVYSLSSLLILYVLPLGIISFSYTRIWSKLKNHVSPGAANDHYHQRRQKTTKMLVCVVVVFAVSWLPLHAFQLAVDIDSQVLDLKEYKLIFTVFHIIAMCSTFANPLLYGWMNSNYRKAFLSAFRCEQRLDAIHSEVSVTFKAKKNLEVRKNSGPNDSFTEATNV

human NPY Y4 receptor = human NPY Y4 receptor (human, UniProt P50391 1-375); assay: cell-based or functional assay
human NPY Y4 receptor, sequence (P50391 whole entry): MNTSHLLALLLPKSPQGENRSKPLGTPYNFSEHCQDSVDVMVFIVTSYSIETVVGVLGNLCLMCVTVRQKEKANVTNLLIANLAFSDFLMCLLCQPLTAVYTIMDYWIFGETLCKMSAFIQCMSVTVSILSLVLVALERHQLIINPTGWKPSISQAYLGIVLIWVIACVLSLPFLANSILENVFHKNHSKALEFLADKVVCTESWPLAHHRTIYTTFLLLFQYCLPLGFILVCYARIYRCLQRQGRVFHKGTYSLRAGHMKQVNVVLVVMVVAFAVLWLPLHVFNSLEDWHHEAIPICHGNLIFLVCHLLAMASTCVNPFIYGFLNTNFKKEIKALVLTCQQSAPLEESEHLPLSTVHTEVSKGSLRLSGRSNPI

human serum albumin [4] = molecular target: T1, human serum albumin; assay: SPR (Biacore T100), HSA immobilized, 37 C, 30 µl/min
Description: (§2) Serum albumins were dissolved in PBS buffer (10 mM sodium phosphate, 130 mM sodium chloride, pH 7.1) to a concentration of 10 mg/ml, and subsequently diluted to 8-10 μg/ml in 10 mM sodium acetate pH 5.0 for immobilization. Serum albumins were immobilized on a Series S CM5 sensor chip using standard ethyl(dimethylaminopropyl) carbodiimide (EDC)/N-hydroxysuccinimide (NHS) chemistry in HBS-EP+ running buffer at 25° C., following general manufacturer guidelines. Flow cell 1 was activated with EDC/NHS and blocked with ethanolamine. […] Kinetic experiments were performed in PBS buffer containing 0.05% tween-20 (running buffer) at either 25° C. or 37° C. […] These samples were injected across flow cells 1-4 for 300 s, with a 420 s dissociation time, at flow rates of 30 μl/min or 60 μl/min to check for mass transfer limitation. All surfaces were regenerated with 2 pulses of 10 mM glycine pH 2.0 at 30 μl/min for 30 s. Raw sensograms were “double-referenced” by subtracting flow cell 1 data from flow cell 2, 3 or 4 data, and then subtracting a separate buffer cycle from each sensogram. The double-referenced sensogram data was fitted to a 1:1 Langmuir model using Biacore T100 Evaluation software version 2.0.2 to determine the association rate constant (ka), the dissociation rate constant (kd), and the equilibrium dissociation constant (KD).

human serum albumin [5] = molecular target: T1, human serum albumin; assay: SPR (Biacore T100), HSA immobilized, 37 C, 60 µl/min
Description: as §2

[6] = molecular target: T3, cynomolgous monkey serum albumin (cynomolgous monkey, UniProt A2V9Z4 25-608); assay: SPR (Biacore T100), CySA immobilized, 37 C, 30 µl/min
T3 construct: also called CySA
T3 sequence (A2V9Z4 25-608 limits assumed): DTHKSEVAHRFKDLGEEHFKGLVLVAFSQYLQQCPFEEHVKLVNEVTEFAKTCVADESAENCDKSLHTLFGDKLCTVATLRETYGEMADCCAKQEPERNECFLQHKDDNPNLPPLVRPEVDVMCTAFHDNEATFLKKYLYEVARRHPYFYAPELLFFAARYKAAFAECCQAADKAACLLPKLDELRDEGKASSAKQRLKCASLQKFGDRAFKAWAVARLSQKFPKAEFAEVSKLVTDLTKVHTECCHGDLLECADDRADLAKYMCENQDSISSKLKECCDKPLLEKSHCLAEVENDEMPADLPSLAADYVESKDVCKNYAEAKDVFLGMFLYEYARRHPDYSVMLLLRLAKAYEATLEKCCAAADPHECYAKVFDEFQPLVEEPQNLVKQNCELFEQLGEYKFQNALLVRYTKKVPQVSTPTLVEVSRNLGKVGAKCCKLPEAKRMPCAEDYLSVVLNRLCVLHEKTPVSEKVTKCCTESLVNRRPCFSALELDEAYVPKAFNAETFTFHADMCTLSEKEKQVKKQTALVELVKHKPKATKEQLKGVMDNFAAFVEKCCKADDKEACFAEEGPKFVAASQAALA
Description: as §2

[7] = molecular target: T3, cynomolgous monkey serum albumin; assay: SPR (Biacore T100), CySA immobilized, 37 C, 60 µl/min
Description: as §2

murine serum albumin [8] = molecular target: T4, murine serum albumin (mouse, UniProt P07724 25-608); assay: SPR (Biacore T100), immobilized MuSA, analyte series 1000 to 62.5 nM, 37 C
T4 construct: also called MuSA; mouse serum albumin
T4 sequence (P07724 25-608 limits assumed): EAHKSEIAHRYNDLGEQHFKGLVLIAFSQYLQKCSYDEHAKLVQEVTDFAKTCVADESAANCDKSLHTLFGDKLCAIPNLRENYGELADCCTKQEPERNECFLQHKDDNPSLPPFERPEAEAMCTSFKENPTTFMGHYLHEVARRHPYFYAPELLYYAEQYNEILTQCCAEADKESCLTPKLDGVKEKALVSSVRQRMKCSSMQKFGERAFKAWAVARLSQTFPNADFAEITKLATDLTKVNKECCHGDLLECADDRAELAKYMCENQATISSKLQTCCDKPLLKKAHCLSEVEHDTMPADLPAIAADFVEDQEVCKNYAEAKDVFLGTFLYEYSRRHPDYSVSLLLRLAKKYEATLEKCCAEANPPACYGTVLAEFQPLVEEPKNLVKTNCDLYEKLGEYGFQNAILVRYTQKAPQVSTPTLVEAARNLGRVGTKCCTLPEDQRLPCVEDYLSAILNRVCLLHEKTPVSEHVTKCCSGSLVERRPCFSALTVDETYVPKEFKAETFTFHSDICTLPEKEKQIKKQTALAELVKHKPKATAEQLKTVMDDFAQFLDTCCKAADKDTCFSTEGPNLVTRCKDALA
Description: as §2

murine serum albumin [9] = molecular target: T4, murine serum albumin; assay: SPR (Biacore), albumin immobilized on CM5 chip
Description: (§3) In addition, binding to albumin was carried out under various pH conditions ranging from pH 5.5 to pH 7.4.

human serum albumin [10] = molecular target: T1, human serum albumin; assay: SPR (Biacore), albumin immobilized on CM5 chip
Description: as §3

rhesus serum albumin = molecular target: T5, rhesus serum albumin (rhesus, UniProt Q28522 17-600); assay: SPR (Biacore), albumin immobilized on CM5 chip
T5 construct: also called RhSA
T5 sequence (Q28522 17-600 limits assumed): as the sequence (A2V9Z4 25-608 limits assumed) above
Description: as §3

β-klotho of differentiated 3T3-L1 adipocytes (mouse), sequence (Q99N32 whole entry): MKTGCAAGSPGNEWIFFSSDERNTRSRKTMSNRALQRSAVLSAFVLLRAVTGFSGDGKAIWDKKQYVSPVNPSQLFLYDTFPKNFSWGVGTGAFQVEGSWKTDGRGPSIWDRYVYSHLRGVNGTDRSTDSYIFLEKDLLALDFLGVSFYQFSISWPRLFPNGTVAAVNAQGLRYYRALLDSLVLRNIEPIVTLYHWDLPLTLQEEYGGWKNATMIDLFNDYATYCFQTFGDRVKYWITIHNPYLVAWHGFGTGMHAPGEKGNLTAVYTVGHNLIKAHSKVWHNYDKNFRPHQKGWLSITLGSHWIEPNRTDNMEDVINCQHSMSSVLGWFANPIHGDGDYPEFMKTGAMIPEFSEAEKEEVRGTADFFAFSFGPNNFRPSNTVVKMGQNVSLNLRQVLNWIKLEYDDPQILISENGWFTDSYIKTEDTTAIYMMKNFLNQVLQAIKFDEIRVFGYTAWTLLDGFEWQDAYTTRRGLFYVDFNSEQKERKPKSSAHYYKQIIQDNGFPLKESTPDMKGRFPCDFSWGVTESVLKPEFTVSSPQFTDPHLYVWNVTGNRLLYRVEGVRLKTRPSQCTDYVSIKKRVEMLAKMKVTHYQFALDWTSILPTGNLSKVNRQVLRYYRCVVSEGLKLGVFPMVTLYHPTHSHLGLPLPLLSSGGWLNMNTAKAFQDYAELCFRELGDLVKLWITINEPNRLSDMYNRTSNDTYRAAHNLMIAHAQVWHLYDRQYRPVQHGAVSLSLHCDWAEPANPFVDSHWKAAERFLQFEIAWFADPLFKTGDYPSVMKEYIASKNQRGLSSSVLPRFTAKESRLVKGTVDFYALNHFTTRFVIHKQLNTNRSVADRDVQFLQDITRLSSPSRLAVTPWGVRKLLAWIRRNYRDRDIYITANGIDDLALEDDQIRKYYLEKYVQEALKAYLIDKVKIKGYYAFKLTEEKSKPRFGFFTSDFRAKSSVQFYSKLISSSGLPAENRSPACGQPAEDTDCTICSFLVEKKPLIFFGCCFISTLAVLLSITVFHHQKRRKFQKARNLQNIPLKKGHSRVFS

His-tagged FGF21 (from UniProt Q9NSA1 29-209) (ligand)
EC50 (nM), pERK 1/2 assay in HEK β-Klotho expressing stable cells (human β-klotho): 7 nM
Efficacy (%), pERK 1/2 assay in HEK β-Klotho expressing stable cells (human β-klotho): 100%
EC50 (nM), pERK assay in 3T3-L1 adipocytes [1]: 4 nM
Fold Activation, pERK assay in 3T3-L1 adipocytes [1]: 2.1 fold

KCNTATCATQRLANFLVRSSNNLGPVLPPTNVGSNTY-NH2 (disulfide 2-7) [Amylin Control Peptide]
Efficacy (% of native peptide ligand maximal activity), cellular cAMP assay (Amylin receptor): 100%

B1: SABA1-AMYv25 (designed binder)
chain: MGVSDVPRDLEVVAATPTSLLISWHSYYEQNSYYRITYGETGGNSPVQEFTVPYSQTTATISGLKPGVDYTITVYAVYGSKYYYPISINYRTEIEDEDEDEDEDGC
modifications: Maleimide-PEG20 spacer (X1) between the Cys after (ED)5G and AMYv5 (rat amylin); C-terminal amidation; disulfide bridge between the two Cys residues of amylin
notes: also called SABA-Amylin-CONH2 conjugate; SABA1.7-(ED)5G-Cys-PEG20-Amylin-CONH2
Cell based Potency (EC50, nM), cellular cAMP assay (Amylin receptor): 12.2 nM
Efficacy (% of native peptide ligand maximal activity), cellular cAMP assay (Amylin receptor): 119%
Kd (human serum albumin [2]): 25.8 nM
Kd (human serum albumin [3]): 25.8 nM
koff (human serum albumin [3]): 0.000241 s⁻¹
kon (human serum albumin [3]): 9340 M⁻¹ s⁻¹

B2: SABA1-PYYv7 (designed binder)
chain: MGVSDVPRDLEVVAATPTSLLISWHSYYEQNSYYRITYGETGGNSPVQEFTVPYSQTTATISGLKPGVDYTITVYAVYGSKYYYPISINYRTEIEDEDEDEDEDGC
modifications: Maleimide-PEG20 spacer (X1) between the Cys after (ED)5G and PYYv17 (mouse PYY3-36); C-terminal amidation
notes: also called SABA-PYY3-36-CONH2 conjugate; SABA1.7-(ED)5G-Cys-PEG20-PYY-CONH2
Potency (EC50, nM), GTPγS binding functional assay (human NPY Y2 receptor): 52 nM
Kd (human serum albumin [2]): 22.5 nM
Kd (human serum albumin [3]): 22.5 nM
koff (human serum albumin [3]): 0.000208 s⁻¹
kon (human serum albumin [3]): 9290 M⁻¹ s⁻¹

APLEPMYPGDYATPEQMAQYETQLRRYINTLTRPRY-NH2 [PP Control Peptide]
Potency (EC50, nM), GTPγS binding functional assay (human NPY Y4 receptor): 1.7 nM

B3: SABA1-PPv7 (designed binder)
chain: MGVSDVPRDLEVVAATPTSLLISWHSYYEQNSYYRITYGETGGNSPVQEFTVPYSQTTATISGLKPGVDYTITVYAVYGSKYYYPISINYRTEIEDEDEDEDEDGC
modifications: Maleimide-PEG20 spacer (X1) between the Cys after (ED)5G and PPv9 (mouse PP); C-terminal amidation
notes: also called SABA-PP-CONH2 conjugate; SABA1-APPv7
Potency (EC50), GTPγS binding functional assay (human NPY Y4 receptor): > 1000 nM
Kd (human serum albumin [2]): 18.8 nM
Kd (human serum albumin [3]): 18.8 nM
koff (human serum albumin [3]): 0.000142 s⁻¹
kon (human serum albumin [3]): 7880 M⁻¹ s⁻¹

B4: SABA1-FGF21v3 (designed binder)
chain: MGVSDVPRDLEVVAATPTSLLISWHSYYEQNSYYRITYGETGGNSPVQEFTVPYSQTTATISGLKPGVDYTITVYAVYGSKYYYPISINYRTEIDKPSQHHHHHHGSGSGSGSGSGSGSPIPDSSPLLQFGGQVRQRYLYTDDAQQTEAHLEIREDGTVGGAADQSPESLLQLKALKPGVIQILGVKTSRFLCQRPDGALYGSLHFDPEACSFRELLLEDGYNVYQSEAHGLPLHLPGNKSPHRDPAPRGPARFLPLPGLPPALPEPPGILAPQPPDVGSSDPLSMVGPSQGRSPSYAS
notes: Fusion of SABA1 and FGF21; also called SABA1-FGF21 variant 3
Kd (human serum albumin [4]): 170 nM
koff (human serum albumin [4]): 0.00103 s⁻¹
kon (human serum albumin [4]): 6160 M⁻¹ s⁻¹
Kd (human serum albumin [5]): 180 nM
koff (human serum albumin [5]): 0.00107 s⁻¹
kon (human serum albumin [5]): 5870 M⁻¹ s⁻¹
Kd [6]: 2200 nM
koff [6]: 0.0117 s⁻¹
kon [6]: 5310 M⁻¹ s⁻¹
Kd [7]: 3100 nM
koff [7]: 0.0136 s⁻¹
kon [7]: 4380 M⁻¹ s⁻¹
binding result (murine serum albumin [8]): no binding (tested: 1000 nM)

B5: SABA2.1 (designed binder)
chain: MGVSDVPRDLEVVAATPTSLLISWPKYDKTGHYYRITYGETGGNSPVQEFTVPTRQTTATISGLKPGVDYTITVYAVSKDDYYPHEHRPISINYRTEIDKPSQHHHHHH
notes: His6-tagged Adnectin core 2
binding result (murine serum albumin [9]): no binding
Kd (human serum albumin [10]): 33.8 nM
koff (human serum albumin [10]): 0.000171 s⁻¹
Kd (rhesus serum albumin): 63.6 nM
koff (rhesus serum albumin): 0.000442 s⁻¹

B6: SABA4.1 (designed binder)
chain: MGVSDVPRDLEMVAATPTSLLISWEDDSYYSRYYRITYGETGGNSPVQEFTVPSDLYTATISGLKPGVDYTITVYAVTYDVTDLIMHEPISINYRTEIDKPSQHHHHHH
notes: His6-tagged Adnectin core 4; has a scaffold mutation; the scaffold-perfect version is SABA5
binding result (murine serum albumin [9]): no binding
Kd (human serum albumin [10]): 412 nM
koff (human serum albumin [10]): 0.000782 s⁻¹
Kd (rhesus serum albumin): > 1000 nM
koff (rhesus serum albumin): 0.00383 s⁻¹

B7: SABA1.1 (designed binder)
chain: MGVSDVPRDLEVVAATPTSLLISWHSYYEQNSYYRITYGETGGNSPVQEFTVPYSQTTATISGLKPGVDYTITVYAVYGSKYYYPISINYRTEIDKPSQHHHHHH
binding result (murine serum albumin [9]): no binding
Kd (human serum albumin [10]): 47.2 nM
koff (human serum albumin [10]): 0.000457 s⁻¹
Kd (rhesus serum albumin): 778 nM
koff (rhesus serum albumin): 0.00545 s⁻¹

B8: SABA3.1 (designed binder)
chain: MGVSDVPRDLEVVAATPTSLLISWSNDGPGLSYYRITYGETGGNSPVQEFTVPSSQTTATISGLKPGVDYTITVYAVSYYTKKAYSAGPISINYRTEIDKPSQHHHHHH
notes: His6-tagged Adnectin core 3
binding result (murine serum albumin [9]): no binding
Kd (human serum albumin [10]): 863 nM
koff (human serum albumin [10]): 0.0682 s⁻¹
Kd (rhesus serum albumin): 431 nM
koff (rhesus serum albumin): 0.0337 s⁻¹
